Target: YFP–CPR5 (translational fusion of the yellow fluorescent protein to CPR5) (Arabidopsis thaliana) (UniProt Q9LV85)
Test: FRET or BRET

Chain of UniProt Q9LV85 (Q9LV85 whole entry, the tested form may be a part): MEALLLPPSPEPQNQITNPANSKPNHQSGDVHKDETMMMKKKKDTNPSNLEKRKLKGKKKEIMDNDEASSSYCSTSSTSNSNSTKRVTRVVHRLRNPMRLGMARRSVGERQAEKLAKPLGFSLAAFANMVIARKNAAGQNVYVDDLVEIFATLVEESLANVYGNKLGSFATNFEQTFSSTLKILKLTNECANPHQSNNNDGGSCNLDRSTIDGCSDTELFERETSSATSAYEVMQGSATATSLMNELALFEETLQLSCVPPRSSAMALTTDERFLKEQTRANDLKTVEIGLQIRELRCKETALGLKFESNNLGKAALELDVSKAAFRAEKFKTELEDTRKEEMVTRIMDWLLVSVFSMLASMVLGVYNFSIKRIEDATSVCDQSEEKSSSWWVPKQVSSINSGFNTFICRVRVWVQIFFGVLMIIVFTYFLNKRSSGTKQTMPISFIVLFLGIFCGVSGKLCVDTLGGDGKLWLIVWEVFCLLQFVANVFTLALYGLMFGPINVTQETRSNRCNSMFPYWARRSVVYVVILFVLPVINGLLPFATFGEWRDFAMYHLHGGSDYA

Substance “CFP–sbZIP60 (cyan fluorescent protein fused to spliced full-length bZIP60) (natural protein)” has an FRET efficiency of 10%.

— publication PMC5340296
